Laboratory results reported in patent publication US20200147230A1.

What was measured:
human nucleolin (human) = human nucleolin (human) (UniProt P19338); experiment: fixed cell assay on fixed, permeabilised Raji cells; negative control, ambiguous fit
[1] = biological target: murine nucleolin (in Colon 26 / C26 murine colon carcinoma cells) (murine) (UniProt P09405); experiment: fixed cell assay on fixed, permeabilised murine C26 cells; negative control
Sequence of UniProt P09405 (P09405 2-707): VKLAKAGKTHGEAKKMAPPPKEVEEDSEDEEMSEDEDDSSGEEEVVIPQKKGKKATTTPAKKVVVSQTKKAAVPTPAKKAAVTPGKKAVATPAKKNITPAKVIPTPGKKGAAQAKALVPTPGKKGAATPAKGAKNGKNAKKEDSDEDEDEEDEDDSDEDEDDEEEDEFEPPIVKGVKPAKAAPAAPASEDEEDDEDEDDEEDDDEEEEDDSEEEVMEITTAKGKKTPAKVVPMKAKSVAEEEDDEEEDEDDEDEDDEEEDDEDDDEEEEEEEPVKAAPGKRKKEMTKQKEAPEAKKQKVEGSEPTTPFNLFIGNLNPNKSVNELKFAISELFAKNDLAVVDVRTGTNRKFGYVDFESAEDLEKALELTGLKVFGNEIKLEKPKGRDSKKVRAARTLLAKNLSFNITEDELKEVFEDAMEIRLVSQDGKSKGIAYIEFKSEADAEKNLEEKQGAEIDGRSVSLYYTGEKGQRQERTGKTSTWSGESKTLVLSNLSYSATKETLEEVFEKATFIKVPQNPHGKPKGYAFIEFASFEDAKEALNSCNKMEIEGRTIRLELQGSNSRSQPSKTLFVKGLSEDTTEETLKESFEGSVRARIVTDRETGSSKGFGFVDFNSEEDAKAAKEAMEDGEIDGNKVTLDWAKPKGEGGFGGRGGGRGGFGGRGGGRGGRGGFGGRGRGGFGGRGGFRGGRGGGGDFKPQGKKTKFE

Sequence of UniProt P19338 (P19338 2-710 limits assumed): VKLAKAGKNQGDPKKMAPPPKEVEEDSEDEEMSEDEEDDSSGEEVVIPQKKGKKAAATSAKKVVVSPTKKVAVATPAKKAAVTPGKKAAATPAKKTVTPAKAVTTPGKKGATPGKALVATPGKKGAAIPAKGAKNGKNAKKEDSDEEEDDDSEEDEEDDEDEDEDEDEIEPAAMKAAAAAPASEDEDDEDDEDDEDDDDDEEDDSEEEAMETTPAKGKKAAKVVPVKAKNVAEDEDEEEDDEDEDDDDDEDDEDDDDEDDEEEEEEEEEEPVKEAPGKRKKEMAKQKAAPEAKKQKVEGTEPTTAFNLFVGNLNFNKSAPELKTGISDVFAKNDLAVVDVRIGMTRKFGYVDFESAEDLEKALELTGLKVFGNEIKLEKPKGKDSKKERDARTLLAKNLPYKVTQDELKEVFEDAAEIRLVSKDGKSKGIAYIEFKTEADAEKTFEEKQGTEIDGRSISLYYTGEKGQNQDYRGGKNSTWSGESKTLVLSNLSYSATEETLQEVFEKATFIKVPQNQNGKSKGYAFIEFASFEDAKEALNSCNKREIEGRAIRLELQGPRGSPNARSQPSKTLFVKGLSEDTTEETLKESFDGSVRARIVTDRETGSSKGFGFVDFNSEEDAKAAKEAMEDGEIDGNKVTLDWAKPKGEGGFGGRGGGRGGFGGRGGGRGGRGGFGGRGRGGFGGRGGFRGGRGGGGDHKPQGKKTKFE

Q: Which results are given for IgG1 isotype control antibody?
A: Kd (human nucleolin (human)): 1.3 µM; Kd [1]: 33.3 µM
